Where no end group is shown, it is not given here.

Test [1] deals with GABARAP (UniProt O95166 2-116). As to the kind of experiment: FP.
Test [2] addresses LC3A (UniProt Q9H492 1-121). As to the kind of experiment: FP.

Chain of GABARAP (O95166 2-116): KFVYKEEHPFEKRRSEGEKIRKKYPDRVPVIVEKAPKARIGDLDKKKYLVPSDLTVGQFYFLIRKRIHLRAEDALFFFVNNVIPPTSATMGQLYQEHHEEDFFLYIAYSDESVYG

B1: fluorescein-modified truncated (103–111) LIR^ATG3 peptide (peptide)
peptide: GDGGWVDTY
modifications: also: fluorescein, position not given here
A word on the Kd: it is the concentration at which binding is half-saturated. On to B1, for which the figures for the Kd in test [1] and in test [2] were above 10000 nM and above 15000 nM, respectively.

B2: fluorescein-modified linear LIR^ATG3 peptide (peptide)
chain: LEAIIEEDDGDGGWVDTYH
modifications: also: fluorescein, position not given here
For B2, the Kd in test [1] was 1200 nM; in test [2], 2600 nM.

B3: fluorescein-modified cyclized LIR^ATG3 peptide (peptide)
chain: LEAIIEEDDGDGGWVDTYHCGGGK
modifications: also: fluorescein, position not given here, cyclized, places not given here
As to B3, the Kd in test [1] amounted to 150 nM; in test [2], 410 nM.

(Values after PMC10214526 (2023).)
